In the supplement of paper PMC9170038:

System: MS2 coat protein
Experiment: apparent KD of MS2 coat protein; designed switch direction (-1 OFF switch, 1 ON switch): -1; higher = weaker reporter binding
Summary of the method: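 RNA switches sharing common flanks were transcribed by stalled E. coli RNA polymerase on Illumina chips. A doubling series of SNAP-549-labelled MS2 coat protein, from 0.7 or 1.5 nM to 3 µM, was applied in Tris-HCl pH 7.5 buffer with KCl, MgCl2, BSA, DTT, tRNA and Tween-20. Each step lasted 0.8–1.5 h at the bottom of the series and 10–20 min at the top. Normalised cluster fluorescence was curve-fitted, giving apparent KD as the per-design median over clusters.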

[1] = input ligand: microRNA oligo, concentration not stated
[2] = Eterna round: R95, input ligand: FMN 200 uM
[3] = Eterna round: R95, input ligand: microRNA oligo, concentration not stated
[4] = Eterna round: R95, input ligand: none

| Sequence | apparent KD of MS2 coat protein [1] [nM] | apparent KD of MS2 coat protein [2] [nM] | apparent KD of MS2 coat protein [3] [nM] | apparent KD of MS2 coat protein [4] [nM] | apparent KD of MS2 coat protein (input ligand: FMN 200 uM) [nM] | apparent KD of MS2 coat protein (input ligand: none) [nM] |
| --- | --- | --- | --- | --- | --- | --- |
| UAAUUAAUAAGAUCAAUUAAUUAACAUGAGGAUCACCCAUGUGAGGAUAUCAGCUCGAUUAGAGCUGAGAAGGCACAAUAAUUA [ExNG3/17-C1] (Eterna round: R96, puzzle: Exclusion NG 3) | 39 | – | – | – | – | – |
| AUUUAGAGAGGAUAUAUAUUGUGAAACAUGAGGAUCACCCAUGUAAUAAUAUGGAUAUAAAUAGAAGGCUCAUUUU [Mat - Exclusion 5 - JL mod - D11] (puzzle: Exclusion 5) | – | 26.1 | 21.2 | 25.1 | – | – |
| UAUAUAUAGUAAGGAUAUGUAUUAAAUUUAUAAACAGAAGGUACUGACAUGAGGAUCACCCAUGUUUUAGUGUGGGCAUGUAGA [JMF's solution 75] (Eterna round: R96, puzzle: Exclusion NG 1) | 69 | – | – | – | – | – |
| UAACAAAACUGAGGAUAUCCAUAGCAAAACGUUUGAUCCUCUACAUGAGGAUCACCCAUGUAGCAGGAGAAGGCAGAAACAAAG [Orraenso] (Eterna round: R96, puzzle: Exclusion NG 2) | 90.1 | – | – | – | 28.3 | 21.6 |
| AGUAGUAGUAUCCGAUCGUACAUGAGGAUCACCCAUGUAGCUAGACGUGCACGCGAUGCUCGUCAGACUACCAGAUG [salish99_TOv1_r3_036] (puzzle: Sensor v3, turn-off variant 1) | – | 202 | 168 | 225 | – | – |
| CGGUGCUGAGGAUAUACAUGAGGAUCACCCAUGUGUUAUUGAUAGAAAACUGGCAGAUGUAGAAGGCGGUACUG [Mat - Exclusion 3 - Mod of JL D99] (puzzle: Exclusion 3) | – | 80.5 | 25.4 | 24.9 | – | – |
| CUCUGUGCAAAGGAUAUGUGAACAGGUCUAAUAACAGAAGGUUGCACUUGAGGAUCACCCAAGUUAAAGGGACC [Ortebi] (Eterna round: R97, puzzle: Exclusion 6) | – | – | – | – | 517 | 462 |
| CACCGUUACACAGGAUAUCUUACAUGAGGAUCACCCAUGUAAUAAAUGAGAAUUUCGAAUGUAAAAGAGAAGGGUGGAAUCGGC [Ostracism 66 - Jieux - Exclusion NG 2] (Eterna round: R96, puzzle: Exclusion NG 2) | 21.8 | – | – | – | 73.1 | 30.3 |
| UAAAAGCUAGGAUAUACAUGAGGAUCACCCAUGUAUUAGGGCAUGAAAUCGGUCCCACGUAGAAGGAGCGACAC [Dilaxeed] (Eterna round: R97, puzzle: Exclusion 3) | – | – | – | – | 105 | 24.5 |
| GGACCAAGUCUAGGAUAUUUCAAUAGUUGUGUGAGAGAAGGAGAAUAACAUGAGGAUCACCCAUGUACCUCAAGUAGGCCGAUU [Eternabot solution 16] (Eterna round: R96, puzzle: Exclusion NG 1) | 36.2 | – | – | – | 59.2 | 48 |
| GCACUGCGAGGAUAUACAUGAGGAUCACCCAUGUGUCGGCAGACUUGUUUGGUCUAAGGUAGAAGGCGCGUAAA [JR_Ex3_Sub003] (Eterna round: R97, puzzle: Exclusion 3) | – | – | – | – | 145 | 39.7 |
| CCCGUACAUGAGGAUCACCCAUGUCAGGAUAUCUAAUCAUGCUGUAAGGCACAUUGAGGGAGAAGGGACAUAUU [EX1 B.29] (Eterna round: R97, puzzle: Exclusion 1) | – | – | – | – | 32.4 | 20.8 |
| CGAUGCUCGAAUCCACAUGAGGAUCACCCAUGUCGAGUUAGCGAGGAUAUCGGUGACACAUAGUACGAGAAGGCGCGAACCUGA [Ex NG3 #25] (Eterna round: R96, puzzle: Exclusion NG 3) | 28.3 | – | – | – | 50.9 | 34.8 |
| UAUAUAUAGUAAGGAUAUGUAUUUAUUUUAUCAACAGAAGGUACUGACAUGAGGAUCACCCAUGUUUUAGUGUGGGCAUGUAGA [JMF's solution 26] (Eterna round: R96, puzzle: Exclusion NG 1) | 69.7 | – | – | – | 155 | 85.7 |
| GCGCACCUACCAAAAGGUAGGUCAACAUGAGGAUCACCCAUGUAGGAUAUCGAUUGCUUUGCAGUCGAGAAGGAUAUGAUGCGC [JL ENG3 3.80 Mod 12] (Eterna round: R96, puzzle: Exclusion NG 3) | 16.6 | – | – | – | 27.2 | 24 |
| AAGAAACAUGAGGAUCACCCAUGUGAGGAUAUGAGAAAGAAAAGAAAAGAAAGAAGAUUCAGAAGGCACAAAGG [salish99-ex1_r3_035] (puzzle: Exclusion 1) | – | 91.9 | 43.9 | 50 | – | – |

| Sequence | apparent KD of MS2 coat protein [1] [nM] | apparent KD of MS2 coat protein [2] [nM] | apparent KD of MS2 coat protein [3] [nM] | apparent KD of MS2 coat protein [4] [nM] | apparent KD of MS2 coat protein (input ligand: FMN 200 uM) [nM] | apparent KD of MS2 coat protein (input ligand: none) [nM] |
| --- | --- | --- | --- | --- | --- | --- |
| CAGUGCGUAGGAUAUACGAGGGCCCUUUAUUGUUGAUAAUGACAUGAGGAUCACCCAUGUAGAAGGGCGUCAUG [Eternabot (L1) Solution 45] (Eterna round: R97, puzzle: Exclusion 2) | – | – | – | – | 87.3 | 24.8 |
| AAGUAUCAUGUAGGAUAUGCUAUCCGAACGGUAGCAGAAGGACAUGAGGAUCACCCAUGUUCUCAUCUGUGAGAACAGAUGUCU [Ex NG1 #5] (Eterna round: R96, puzzle: Exclusion NG 1) | 19.4 | – | – | – | 95.2 | 22.3 |
| UCCUCACAUGAGGAUCACCCAUGUUAGGAUAUCCACCGUUGAUGGUGCCGAAUCGGUAGGAGAAGGAACAUACA [EX1 B.18] (Eterna round: R97, puzzle: Exclusion 1) | – | – | – | – | 58.8 | 24.1 |
| GGGUGUCGAGUUAGGAUAUCGAUGCCGUAACGGCUCGAGAAGGGACUUGAGGAUCACCCAAGUCUGGUCGAGGC [Rierariis] (Eterna round: R97, puzzle: Brourd's mod of Exclusion 4) | – | – | – | – | 23.4 | 18.4 |
| UGUACGAUGCGUGCUGACAUGCGUCGUGCAGCAGGUGGAACAUGAGGAUCACCCAUGUCCUCAUUUGCUCGUCUUAU [Mat - Sensor v3 - Turn-off var 2 - D21] (Eterna round: R96, puzzle: Sensor v3, turn-off variant 2) | 104 | – | – | – | 35.1 | 39.1 |
| UACAUGAGGAUCACCCAUGUUUUGUCGUGUAUGGUAUUUAUCUAGGAUAUCAAUUUAGUUACUUAUGAGAAGGAGAAUAUUAAU [JMF's solution 77] (Eterna round: R96, puzzle: Exclusion NG 3) | 22.3 | – | – | – | 33.8 | 38.7 |
| AAGAACUAAGGAUAUACAUGAGGAUCACCCAUGUCUUUUACAUGUUACUGGCCCGCAUGUAGAAGGUAGAAAAG [Tianrasoed] (Eterna round: R96, puzzle: Exclusion 3) | 74.4 | – | – | – | 182 | 85 |
| CUGCUUUUGGUGAGGAUAUGCGGUAGCUGGGUACCGCAGAAGGCACAUGAGGAUCACCCAUGUGAUCUGAAAGC [Eternabot (L1) Solution 5] (Eterna round: R97, puzzle: Brourd's mod of Exclusion 4) | – | – | – | – | 687 | 61.2 |
| UAGGAUACCGUCAGGAUAUAGAGUUCCCACAGACUCUAGAAGGGACAUGAGGAUCACCCAUGUCGUGCAACGUU [Eternabot (L1) Solution 54] (Eterna round: R97, puzzle: Brourd's mod of Exclusion 4) | – | – | – | – | 20.2 | 16.2 |
| UAUUAUCAAGCUAGAUCCCACAUGAGGAUCACCCAUGUGCUCGUCUUAAUUCCAGAAUUACUGGGCUCUCGUCUUAU [JR_STOV1_Sub091] (Eterna round: R97, puzzle: Sensor, turn-off variant 1) | – | – | – | – | 45.5 | 45.1 |
| CAUGAUCUUCGGAUCAUGUACAUGAGGAUCACCCAUGUUACGAGCAGAUCUUCAUACAAGCUUUUUGCUCGUCUUAU [Sensor v3 - Turn-off variant 1 - 34] (puzzle: Sensor v3, turn-off variant 1) | – | 34.5 | 64.9 | 40.4 | – | – |
| UUAAUUAAUUAUAUAAGAUCACAUGAGGAUCACCCAUGUAUAUAGGAUAUCAGCUCGAUUAGAGCUGAGAAGGAUAUACAAUAU [ExNG3/3-B1] (Eterna round: R96, puzzle: Exclusion NG 3) | 138 | – | – | – | 172 | 147 |
| GAGUAGGUAGGAUAUACGAUAAUAUAGGGUAGAUAUAUAACACAUGAGGAUCACCCAUGUAGAAGGACCAGGAG [Mat - Exclusion 2 - Mod of my Tesla design - D63] (puzzle: Exclusion 2) | – | 115 | 38.3 | 36.6 | – | – |
| UAGUACAGAGGAUAUACAUGAGGAUCACCCAUGUGUUUCAGCUAGGAGACUAGCGAAAGUAGAAGGCUGUACUG [salish99_ex3_r4_010] (Eterna round: R97, puzzle: Exclusion 3) | – | – | – | – | 26.2 | 11.4 |
| AUCGGGUCAGGAUAUCAUAGGAGCUGAUAUCCUCGGCUCGGUGAGAAGGGACUUGAGGAUCACCCAAGUAGGGC [Ririonte] (Eterna round: R97, puzzle: Exclusion 4) | – | – | – | – | 44.4 | 46.1 |
| AAGAAACAUGAGGAUCACCCAUGUGAGGAUAUGCAAGAAAGAAAGAAAGAAAGAAGAAGCAGAAGGCACAAAGG [Gaius Turranius] (Eterna round: R96, puzzle: Exclusion 1) | 29.7 | – | – | – | 84.7 | 50.7 |
